# Source: US20170029474A1 (OSAKA UNIVERSITY, published 2017)
# Read-outs that look alike come from different tables or passages of the source.
# B1: C-terminal His-tagged HB-EGF lacking the heparin-binding domain (ligand)
# chain: DLQEADLDLLRVTLSSKPQALATPNKEEHGDPCLRKYKDFCIHGECKYVKELRAPSCICHPGYHGERCHGLSLP
# notes: Captured on a Ni2+ NTA sensor chip for Biacore; also called C-terminal His-tagged recombinant HB-EGF; Δ••-EGF-His
# How the values were obtained:
# [1] = biological target: T1, CRM197 (Corynebacterium diphtheriae, UniProt P00587 26-560); assay: SPR, Biacore T200, His-tagged HB-EGF captured on NTA chip
# [2] = biological target: T1, CRM197; assay: as above; remark: listed apart in the source
binder,measurement,setting,value
B1,Ka,[1],9.22e+08 M⁻¹
same,Ka,[2],9.8e+08 M⁻¹
